From the supplement of paper PMC10567573

B1: RAB40B (parent)
chain: YSLTTSSTHKRSSLRKVKLVRPPQ
B2: APBB1IP (parent)
chain: PPEPLSQVSMWDQRWQDHQPLLPI

Variants of: B1
Assay: protein stability index of a GFP-peptide fusion (GPS, HEK-293T) (PSI 1-6); higher = more stable
Details: c terminus: a fixed tail appended
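Note: lentivirally expressed fusions sorted by FACS into six bins by GFP to DsRed ratio, PSI derived from sequencing read proportions per bin multiplied by bin number.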

Protein stability index of substitutions, site by site:
R21: E 3.41; N 2.92; F 2.17; G 3.62; Q 2.95; P 2.89; W 2.25; I 2.52; M 2.51; V 2.53; T 2.76; Y 2.4; C 2.91; D 3.19; K 3.55; H 2.9; S 3.09; L 3.61; A 3.15
P22: A 2.76; C 3.61; N 3.72; V 2.48; Q 3.39; Y 2.84; D 3.39; S 3.13; W 1.94; E 3.5; I 2.27; K 3.28; H 2.49; G 2.44; M 2.76; L 2.58; R 3; T 3.32; F 2.44
P23: V 3.02; F 2.6; M 2.8; I 2.82; A 3.37; Y 3.79; H 3.01; G 2.69; W 2.04; D 3.2; S 3.25; Q 3.08; N 2.96; R 3.33; K 3.25; T 3.62; L 2.3; E 3.1; C 2.73
Q24: P 3.21; N 2.96; Y 3.09; W 2.68; I 2.22; R 2.62; T 3; V 2.31; G 2.82; D 3.42; A 2.53; C 2.45; H 3.12; K 2.75; S 2.76; M 2.49; L 2.86; E 3.06; F 2.53
V20: W 2.22; G 2.71; L 2.71; Y 2.85; E 3.56; I 2.48; R 3.09; K 3.7; A 3.54; Q 3.09; C 3.25; T 3.25; M 2.79; S 3.35; P 3.56; N 2.85; H 2.92; D 3.66; F 2.67
L19: T 3.25; Q 2.33; D 3.71; K 4.09; S 3.45; G 3.7; M 3.13; W 3.15; R 3.18; H 3.33; C 3.37; E 3.04; F 3.1; V 3.19; P 3.63; I 2.9; Y 2.81; N 3.39

Variants of: B2
Assay: as above
Details: c terminus: a fixed tail appended

Protein stability index: each site, then its substitutions
P2: A 2.71; L 2.09; Q 2.52; I 2.42; N 3.09; Y 2.46; C 2.44; R 2.5; D 2.95; G 2.58; H 2.65; S 2.83; F 1.92; W 2.07; T 2.69; M 2.38; V 3.11; K 2.83; E 3.02
L5: M 2.88; H 3.54; Y 2.71; R 3.62; Q 3.53; P 3.88; G 3.05; T 3.19; V 2.99; I 2.72; S 3.26; F 3; N 3.31; C 3.75; W 2.2; A 3.74; E 3.57; D 3.58; K 2.71
Q7: I 3.07; M 2.74; Y 2.27; D 2.97; N 3.14; C 3.13; G 3.25; E 3.56; W 2.05; R 2.93; A 3.47; V 3.33; P 3.25; F 2.95; S 2.81; K 2.34; H 3.61; T 3.3; L 2.85
W11: F 3.55; S 4.04; N 4.06; D 4.4; Y 3.51; V 3.9; I 3.1; E 4.18; Q 4.25; R 3.4; M 3.57; A 4.11; L 3.77; C 3.16; H 3.83; T 3.73; P 3.08; G 4.18
S6: N 2.93; T 2.76; L 2.85; M 2.82; H 2.71; Q 3.28; G 2.9; P 3.65; V 2.73; R 3.36; E 3.15; Y 2.09; F 2.23; C 2.46; D 3.45; I 2.71; K 2.81; A 3.09
V8: C 2.22; W 2.21; T 2.9; M 3.22; I 3.25; R 2.83; K 3.25; H 3.21; A 3.02; Q 2.9; G 3.38; Y 2.57; E 3.48; F 2.51; S 3.52; N 3.36; D 4.03; P 3.12; L 2.77
P4: E 3.34; C 2.51; I 2.52; D 3.56; L 2.54; V 2.61; K 2.55; W 2.3; T 3.1; H 3.22; M 2.79; F 2.44; Y 2.87; A 3.05; N 2.93; G 2.79; S 2.61; Q 3.34; R 2.55
P1: T 3.37; F 2.17; W 2.48; G 1.94; Q 2.89; V 2.23; M 3.28; H 3.07; R 2.54; A 2.64; I 2.39; Y 1.72; L 2.02; K 2.73; D 3.31; E 2.84; S 2.87; C 2.34; N 2.87
M10: C 3.52; H 3.42; S 3.35; T 2.87; V 3.36; K 2.92; A 3.52; G 3.3; R 3.37; P 3.87; Y 2.51; W 3.12; Q 3.2; D 4.12; E 3.98; I 2.79; N 3.54; F 2.94; L 3.16
E3: L 3.07; D 3.34; S 3.01; C 2.48; I 2.48; N 3.56; R 3.18; Y 2.27; K 3.84; W 2.32; G 3.06; A 2.87; H 2.74; Q 2.77; F 2.4; V 3.46; M 2.94
D12: I 2.48; A 2.64; C 2.34; N 2.82; S 2.73; F 2.13; R 2.9; Q 2.11; M 2.33; T 3.07; G 2.15; H 2.6; K 3.37; P 2.89; L 2.22; E 2.64
S9: K 3.09; V 3.35; R 3.27; H 3.22; M 3.27; Y 2.57; G 3.35; A 3.4; Q 3.28; P 3.16; D 3.55; N 3.25; I 2.86; L 2.84; F 2.95; E 3.56; T 2.99; W 2.62; C 2.34
